System: MS2 coat protein
Test: apparent KD of MS2 coat protein; designed switch direction (-1 OFF switch, 1 ON switch): 1; higher = weaker reporter binding
Procedure, shortened: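 The buffer was Tris-HCl pH 7.5 with KCl, MgCl2, BSA, DTT, tRNA and Tween-20. In it, SNAP-549-labelled MS2 coat protein was titrated in doubling steps from 0.7 or 1.5 nM to 3 µM over chip-bound RNA switches transcribed by stalled E. coli RNA polymerase on Illumina chips. Apparent KD is the per-design median over clusters of curve fits to normalised fluorescence.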

[1] = Eterna round: R95, input ligand: FMN 200 uM
[2] = Eterna round: R95, input ligand: microRNA oligo, concentration not stated
[3] = Eterna round: R95, input ligand: none
[4] = input ligand: microRNA oligo, concentration not stated

Row | Sequence | apparent KD of MS2 coat protein [1] [nM] | apparent KD of MS2 coat protein [2] [nM] | apparent KD of MS2 coat protein [3] [nM] | apparent KD of MS2 coat protein (input ligand: FMN 200 uM) [nM] | apparent KD of MS2 coat protein [4] [nM] | apparent KD of MS2 coat protein (input ligand: none) [nM]
1 | GUACUACAUGAGGAUCACCCAUGUACAAAGGUACGAGGAUAUGCAUGGACGAAAGUUGGUGCAGAAGGCGUGGUAC [Pin2Pin #5] (puzzle: Same State 1) | 21.8 | 24.6 | 22.9 |  |  | 
2 | UUGCUCGUGUGAGGAUAUGCCGCCGUUUCGGCUGCAGAAGGUACUACGUUACAUGAGGAUCACCCAUGUCUCUGUUGUUUCGUG [salish99_SSNG1_r04_940] (Eterna round: R96, puzzle: Same State NG 1) |  |  |  | 18.1 | 13.9 | 16.5
3 | UAGAUUCACGUAGGAUAUCGACCUACAUGAGGAUCACCCAUGUUUUUGAAUAGAUUUUUUAGUUACGAGAAGGACGUUAUGUAU [JR_SSNG2_Sub063] (Eterna round: R96, puzzle: Same State NG 2) |  |  |  | 96 | 210 | 473
4 | ACAUGAGGAUCACCCAUGUAUAGAUUUGAAUCUUAAGUUACGUAGGAUAUCGUGUUUAGUAUCAUCGAGAAGGACGAUCUGAUA [JR_SSNG3_Sub067] (Eterna round: R96, puzzle: Same State NG 3) |  |  |  | 19.7 | 17.2 | 26
5 | UUGAACAAUUAAGGAUAUCGAGUACAUAUGUUAAACAUGAGGAUCACCCAUGUGGGUUGCGGUAUCGAGAAGGUAAAUUAGAAG [Mat - Same State NG 2 - JL mod - D57] (Eterna round: R96, puzzle: Same State NG 2) |  |  |  | 22.8 | 25.3 | 34
6 | AUCCUACAUGAGGAUCACCCAUGUGACGCCUCAAUAGGAUAUGCGUGUGCCUUGGCGCAUGCAGAAGGAUUGAAGC [JL Aveso mod 1] (puzzle: Same State 1) |  | 295 |  |  |  | 
7 | GCUUCACAUGAGGAUCACCCAUGUCUUCGGAGUCGAGGAUAUGGUAACUGUAAACAGUUGCCAGAAGGCGAGGAGC [SS1 - Son of Teenbexe v9] (Eterna round: R96, puzzle: Same State 1) |  |  |  | 48.8 | 55.3 | 66
8 | GGUAGGUUACUACCAAACAUGAGGAUCACCCAUGUAAGUGGGAAGGAUAUGGUACCUUUUAGGUACCAGAAGGUCCAAUUAAUU [JL Fiskers NG3ss - 2 mod 5] (Eterna round: R96, puzzle: Same State NG 3) |  |  |  | 205 | 511 | 3700
9 | UUAAUAAUGAUAGGAUAUACAUGAGGAAUUCUCGUAGAAGGAUCAUGACAUGAGGAUCACCCAUGUAACGCUCGAAAGAGCGUA [Mat - Same State NG 1 - JL mod - D39] (Eterna round: R96, puzzle: Same State NG 1) |  |  |  | 513 | 394 | 662
10 | AACCAACAAAUAAAACAAGCGUGCUCGUCACAUGAGGAUCACCCAUGUUUAAGCGCUGUUCCUACAUCCGCAGCGCC [Inbitiar] (puzzle: Sensor for hsa-mir-208a) | 178 | 32.5 | 232 |  |  | 
11 | AUUUUUAAUGCAGGAUAUGAUUAACAUGAGGAUCACCCAUGUGGUGUUGUGAGUAAGGAGAGUGAUCAGAAGGGCAUUUUUUUU [JMF's solution 30] (Eterna round: R96, puzzle: Same State NG 2) |  |  |  | 726 | 354 | 456
12 | AUUUUUUAUGCAGGAUAUGAUUAACAUGAGGAUCACCCAUGUGGUGUUGUGAGUAAGGAGAGUGAUCAGAAGGGCAUUUUUUUU [JMF's solution 68] (Eterna round: R96, puzzle: Same State NG 2) |  |  |  | 579 | 318 | 401
13 | AGAGAACAUGAGGAUCACCCAUGUAGGAUGGGCAUAGGAUAUAGAAGGAUGAAGGAGAAACUAGAAGGAUGAUGGA [JR_SS1_Sub076] (puzzle: Same State 1) | 107 | 145 | 235 |  |  | 
14 | GGUCCAGCCUGAGCUGGACAAAAGCAUGUACAUGAGGAUCACCCAUGUUCAUGUACAAGCUUUUUGCUCGUCUUAAU [salish99_208a_r3_036] (puzzle: Sensor for hsa-mir-208a) | 525 | 15 | 492 |  |  | 
15 | GAGAAGAGGGACAAGGAUAUGUCAGGAGAGACAUGAGGAUCACCCAUGUAGAGGAAGAGAGAGAGACAGAAGGUGUCGAGAGCGA [JR_SS2_Sub015] (puzzle: Same State 2) | 118 | 66 | 130 |  |  | 
16 | GACCGCGAGGAAGGAUAUGGAGCCUUAUUGGCUCCAGAAGGUCCAUAAAGGACAUGAGGAUCACCCAUGUGGGUUGGAGCGGUC [Fiskers NG1ss - 0] (Eterna round: R96, puzzle: Same State NG 1) |  |  |  | 32.8 | 96.2 | 176

Row | Sequence | apparent KD of MS2 coat protein [1] [nM] | apparent KD of MS2 coat protein [2] [nM] | apparent KD of MS2 coat protein [3] [nM] | apparent KD of MS2 coat protein (input ligand: FMN 200 uM) [nM] | apparent KD of MS2 coat protein [4] [nM] | apparent KD of MS2 coat protein (input ligand: none) [nM]
17 | GGACGUCGAUCUCCUACUUAAACAUGAGGAUCACCCAUGUCACAGGAUAUGAGUCCGAUUAGGACUCAGAAGGGUGCGACGUCC [Fiskers NG3ss - 51] (Eterna round: R96, puzzle: Same State NG 3) |  |  |  | 14 | 12.3 | 18.6
18 | GUCGGUCUGUCGUGCUGAGGUGAUAGUUAACAUGAGGAUCACCCAUGUUGCUGUCGGGUCGUUGGGAGUUUUCUUCG [Modxample 118 - Jieux - Sensor for bsa-mir-208a] (Eterna round: R96, puzzle: Sensor for hsa-mir-208a) |  |  |  | 19.1 | 15.4 | 22.5
19 | AUUGUUAAUGCAGGAUAUGAUUAACAUGAGGAUCACCCAUGUGGUGUUGUGAGUAAGGAGAGUGAUCAGAAGGGCAUUUUUUUU [JMF's solution 31] (Eterna round: R96, puzzle: Same State NG 2) |  |  |  | 826 | 810 | 616
20 | AAGGUGCAGGUACAGGAUAUGUUGCUCGUAACAUGAGGAUCACCCAUGUACCUAUGAGAUUAAAUGCAGAAGGGUGCACACCAAA [Mat - Same State 2 - Mod of UCT - D91] (puzzle: Same State 2) | 73 | 484 | 302 |  |  | 
21 | GUAAAACAUGAGGAUCACCCAUGUCAACAAAGUCGAGGAUAUGGGCAAAUAAAAUAAGAACCAGAAGGCGAAUAAU [salish99_SS1_r3_011] (puzzle: Same State 1) | 31.6 | 254 | 325 |  |  | 
22 | UGUUUGUUGUGAGGAUAUACAUACACCUUACAUGAGGAUCACCCAUGUUGUUACCUUGAUAGUUAGUAGAAGGCACUUGGUUAU [JR_SSNG2_Sub046] (Eterna round: R96, puzzle: Same State NG 2) |  |  |  | 243 | 140 | 261
23 | AUUAUACAUGAGGAUCACCCAUGUAAUUAAUCUAGUAAGAUCUAGGAUAUCAGCUCGAUUAGAGCUGAGAAGGAGAUCACAUGU [SSNG3/20-D2] (Eterna round: R96, puzzle: Same State NG 3) |  |  |  |  | 42.9 | 
24 | UCUUGGUUUUUGCUCGUUUUUUGUGUUGAACAUGAGGAUCACCCAUGUAUUGUACGGUCCAGUUUAGUAGUGGUCCG [JMF 32] (puzzle: Sensor for hsa-mir-208a) | 26 | 13.5 | 27 |  |  | 
25 | GGAUCAUGACGAGGAUAUGGUACAUGAGGAUCACCCAUGUAUGUACCACGACGGAAACGUCGAAUCCAGAAGGCGUCAUGAUCG [Mat - Same State NG 2 - JL mod - D39] (Eterna round: R96, puzzle: Same State NG 2) |  |  |  | 25.3 | 70.1 | 120
26 | AUUAUUUCAUGAGGAUAUGGCACCUUAUUGGUGCCAGAAGGCAUGUCUAUUGACAUGAGGAUCACCCAUGUAUUAAAUUAUAUA [Eli NG1ss - 89] (Eterna round: R96, puzzle: Same State NG 1) |  |  |  |  | 387 | 
27 | CUAUCUACAGGUGUCAUUGCUCGUCUUAUACAUGAGGAUCACCCAUGUUAUAGCCCGGUGCUUGCGCUGGGCUGAUU [JL ViennaUCT Tearor mod 5] (puzzle: Sensor for hsa-mir-208a) | 114 | 15.5 | 99.9 |  |  | 
28 | AUGAAUUUGCGAGGAUAUCGUUUGUUGAAGUUACGAGAAGGCGCUCACUUUACAUGAGGAUCACCCAUGUUUAUGAUAUAUGAU [JR_SSNG1_Sub074] (Eterna round: R96, puzzle: Same State NG 1) |  |  |  | 24.1 | 30 | 37.1
29 | CGCAAAGUGUGAGGAUAUUCACACAUGAGGAUCACCCAUGUGACGGUUCCGGCCAGAGGAGAGCAGGAGAAGGCACAACGCGAG [Eternabot solution 5] (Eterna round: R96, puzzle: Same State NG 2) |  |  |  | 36.1 | 101 | 120
30 | AGUCCAGCCAGAGCUGGACAAAAGCAUGUACAUGAGGAUCACCCAUGUUCAUGUACAAGCUUUUUGCAAGUCAAAAU [Mat - hsa-mir-208a - Mod of JL - 83] (puzzle: Sensor for hsa-mir-208a) | 614 | 16.8 | 1110 |  |  | 
31 | UUACUCAUGUAAGGAUAUGCAGCCGAAACGGCUGCAGAAGGUACUAUAAUACAUGAGGAUCACCCAUGUCUUUUUAAUUUAGAC [Mat - Same State NG 1 - JL mod - D82] (Eterna round: R96, puzzle: Same State NG 1) |  |  |  |  | 37 | 

Source: the supplement of paper PMC9170038
